Data from publication PMC8625570, “Selectivity Determinants of RHO GTPase Binding to IQGAPs” (International Journal of Molecular Sciences, 2021).
“And” between values parts separate entries of the source, which are not always exact repeats. Equal values may be shown once.

B1: CDC42 (aa 1-178) (natural protein)
chain: not shown
B2: IQGAP2^C795 (C-terminal fragment of IQGAP2) (domain or fragment, human, UniProt Q13576 780-1575, looked up)
chain: PLTVIRKFVYLLDQSDLDFQEELEVARLREEVVTKIRANQQLEKDLNLMDIKIGLLVKNRITLEDVISHSKKLNKKKGGEMEILNNTDNQGIKSLSKERRKTLETYQQLFYLLQTNPLYLAKLIFQMPQNKSTKFMDTVIFTLYNYASNQREEYLLLKLFKTALEEEIKSKVDQVQDIVTGNPTVIKMVVSFNRGARGQNTLRQLLAPVVKEIIDDKSLIINTNPVEVYKAWVNQLETQTGEASKLPYDVTTEQALTYPEVKNKLEASIENLRRVTDKVLNSIISSLDLLPYGLRYIAKVLKNSIHEKFPDATEDELLKIVGNLLYYRYMNPAIVAPDGFDIIDMTAGGQINSDQRRNLGSVAKVLQHAASNKLFEGENEHLSSMNNYLSETYQEFRKYFKEACNVPEPEEKFNMDKYTDLVTVSKPVIYISIEEIISTHSLLLEHQDAIAPEKNDLLSELLGSLGEVPTVESFLGEGAVDPNDPNKANTLSQLSKTEISLVLTSKYDIEDGEAIDSRSLMIKTKKLIIDVIRNQPGNTLTEILETPATAQQEVDHATDMVSRAMIDSRTPEEMKHSQSMIEDAQLPLEQKKRKIQRNLRTLEQTGHVSSENKYQDILNEIAKDIRNQRIYRKLRKAELAKLQQTLNALNKKAAFYEEQINYYDTYIKTCLDNLKRKNTRRSIKLDGKGEPKGAKRAKPVKYTAAKLHEKGVLLDIDDLQTNQFKNVTFDIIATEDVGIFDVRSKFLGVEMEKVQLNIQDLLQMQYEGVAVMKMFDKVKVNVNLLIYLLNKKFYGK
notes: IQGAP2, aa 780-1575; also called IQGAP2^C975
B3: IQGAP1^C794 (C-terminal half of human IQGAP1 with the GRD, RGCT and CT domains) (domain or fragment, UniProt P46940 863-1657, looked up)
chain: DPPMVVVRKFVHLLDQSDQDFQEELDLMKMREEVITLIRSNQQLENDLNLMDIKIGLLVKNKITLQDVVSHSKKLTKKNKEQLSDMMMINKQKGGLKALSKEKREKLEAYQHLFYLLQTNPTYLAKLIFQMPQNKSTKFMDSVIFTLYNYASNQREEYLLLRLFKTALQEEIKSKVDQIQEIVTGNPTVIKMVVSFNRGARGQNALRQILAPVVKEIMDDKSLNIKTDPVDIYKSWVNQMESQTGEASKLPYDVTPEQALAHEEVKTRLDSSIRNMRAVTDKFLSAIVSSVDKIPYGMRFIAKVLKDSLHEKFPDAGEDELLKIIGNLLYYRYMNPAIVAPDAFDIIDLSAGGQLTTDQRRNLGSIAKMLQHAASNKMFLGDNAHLSIINEYLSQSYQKFRRFFQTACDVPELQDKFNVDEYSDLVTLTKPVIYISIGEIINTHTLLLDHQDAIAPEHNDPIHELLDDLGEVPTIESLIGESSGNLNDPNKEALAKTEVSLTLTNKFDVPGDENAEMDARTILLNTKRLIVDVIRFQPGETLTEILETPATSEQEAEHQRAMQRRAIRDAKTPDKMKKSKSVKEDSNLTLQEKKEKIQTGLKKLTELGTVDPKNKYQELINDIARDIRNQRRYRQRRKAELVKLQQTYAALNSKATFYGEQVDYYKSYIKTCLDNLASKGKVSKKPREMKGKKSKKISLKYTAARLHEKGVLLEIEDLQVNQFKNVIFEISPTEEVGDFEVKAKFMGVQMETFMLHYQDLLQLQYEGVAVMKLFDRAKVNVNLLIFLLNKKFYGK

Experiments:
[1] = target: the molecule itself; assay: SEC; analytical SEC, Superdex 200 10/300, 30 mM Tris/HCl pH 7.5, 150 mM NaCl, 5 mM MgCl2; IQGAP1^C794 and IQGAP2^C795 alone or mixed with CDC42•GppNHp or RAC1•GppNHp; fractions on Coomassie-stained SDS-PAGE; MW from a calibration curve; set-up: reference not given here
[2] = target: B2; assay: stopped-flow fluorescence spectrometry; association (kobs): 2 µM IQGAP1^C794 or IQGAP2^C795 mixed with 0.2 µM mGppNHp-bound RHO GTPase; 30 mM Tris-HCl pH 7.5, 10 mM K2HPO4/KH2PO4 pH 7.4, 2 mM MgCl2, 3 mM DTT, 25 °C; conditions: both partners purified
[3] = target: B3; assay: as above; conditions: both partners purified
[4] = target: B1; assay: SEC; analytical SEC, Superdex 200 10/300, 30 mM Tris/HCl pH 7.5, 150 mM NaCl, 5 mM MgCl2; IQGAP1^C794 and IQGAP2^C795 alone or mixed with CDC42•GppNHp or RAC1•GppNHp; fractions on Coomassie-stained SDS-PAGE; MW from a calibration curve; set-up: reference not given here; conditions: both partners purified
[5] = target: T1, RAC1 (aa 1-179) (human, UniProt P63000 1-179); assay: as above; set-up: reference not given here; conditions: both partners purified
[6] = target: T2, RAC2 (aa 1-192) (human, UniProt P15153 1-192); assay: stopped-flow fluorescence spectrometry; association (kobs): 2 µM IQGAP1^C794 or IQGAP2^C795 mixed with 0.2 µM mGppNHp-bound RHO GTPase; 30 mM Tris-HCl pH 7.5, 10 mM K2HPO4/KH2PO4 pH 7.4, 2 mM MgCl2, 3 mM DTT, 25 °C; conditions: both partners purified
[7] = target: T3, RAC3 (aa 1-192) (human, UniProt P60763 1-192); assay: as above; conditions: both partners purified
[8] = target: T2, RAC2 (aa 1-192); assay: stopped-flow fluorescence spectrometry; kon from 0.2 µM mGppNHp-bound RHO GTPase with 2-8 µM IQGAP1^C794; koff by displacing with 10 µM unlabeled RAC1-GppNHp from 2 µM IQGAP1^C794 with 0.2 µM GTPase; Kd calculated from the rate constants; 25 °C; conditions: both partners purified
[9] = target: RAC1 M45E/N52E (human, UniProt P63000 1-179, M45E | N52E); assay: as above; conditions: both partners purified
[10] = target: T3, RAC3 (aa 1-192); assay: as above; conditions: both partners purified
[11] = target: B1; assay: as above; conditions: both partners purified
[12] = target: RAC1 T25K/N26D (human, UniProt P63000 1-179, T25K | N26D); assay: as above; conditions: both partners purified
[13] = target: RAC1 Q74D (human, UniProt P63000 1-179, Q74D); assay: as above; conditions: both partners purified
[14] = target: T1, RAC1 (aa 1-179); assay: cell-based or functional assay

Binder	stoichiometry N [1]	binding result [2]	binding result [3]	stoichiometry N [4]	stoichiometry N [5]	binding result [6]	binding result [7]	Kd [8]	fold faster kon than with RAC1 [8]	fold lower Kd than with RAC1 [8]	fold lower koff than with RAC1 [8]	binding result [9]	binding result [10]	fold higher binding affinity than with RAC1 [11]	binding result [12]	binding result [13]	p50^GAP-stimulated GTP hydrolysis of tamraGTP-bound RAC1 (0.2 µM RAC1, 10 µM p50^GAP) in the presence of IQGAP1^C794 [14]
B1	2	binds	binds	–	–	–	–	–	–	–	–	–	–	–	–	–	–
B2	3 and 4	–	–	1 IQGAP per GTPase (printed as 2:2)	1 IQGAP per GTPase (printed as 2:2)	binds	binds	–	–	–	–	–	–	–	–	–	–
B3	2	–	–	1 IQGAP per GTPase (printed as 2:2)	1 IQGAP per GTPase (printed as 2:2)	–	–	27 nM	4 fold	34 fold	8 fold	binds	binds	3 fold	binds	binds	25 fold
